Measured values reported in paper PMC10850505, “Molecular mechanism of specific HLA-A mRNA recognition by the RNA-binding-protein hMEX3B to promote tumor immune escape”.

Experiments:
[1] = target: T1, hMEX3B KH1/2 (G177D/G180D) (Homo sapiens, UniProt Q6ZN04 56-230, G177D;G180D); experiment: ITC; N 0.89; ITC at 298 K, protein injected into RNA, both dialyzed in the same buffer (composition not in the material; purification SEC buffer 2 M NaCl, 20 mM Tris pH 7.5); NMR at 298 K, 0.1 mM protein; conditions: protein: recombinant; tags: 6xHis-SUMO cleaved (ULP1)
T1 sequence: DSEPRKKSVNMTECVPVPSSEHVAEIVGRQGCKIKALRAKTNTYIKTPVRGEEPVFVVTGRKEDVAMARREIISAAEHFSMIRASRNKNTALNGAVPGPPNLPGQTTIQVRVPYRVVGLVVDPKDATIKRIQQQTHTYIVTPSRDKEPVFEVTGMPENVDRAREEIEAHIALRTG

hMEX3B KH1/2 (TR4A) = target: T2, hMEX3B KH1/2 (TR4A) (Homo sapiens, UniProt Q6ZN04 56-230, T102A;R105A;T196A;R199A); experiment: ITC; ITC at 298 K, protein injected into RNA, both dialyzed in the same buffer (composition not in the material; purification SEC buffer 2 M NaCl, 20 mM Tris pH 7.5); NMR at 298 K, 0.1 mM protein; conditions: protein: recombinant; tags: 6xHis-SUMO cleaved (ULP1)
T2 sequence: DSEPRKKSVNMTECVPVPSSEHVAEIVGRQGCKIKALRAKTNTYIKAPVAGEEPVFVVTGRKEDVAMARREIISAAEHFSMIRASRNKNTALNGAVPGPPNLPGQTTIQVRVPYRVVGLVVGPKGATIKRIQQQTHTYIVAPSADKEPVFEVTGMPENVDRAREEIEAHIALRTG

hMEX3B KH1/2 (G4D) = target: T3, hMEX3B KH1/2 (G4D) (Homo sapiens, UniProt Q6ZN04 56-230, G83D;G86D;G177D;G180D); experiment: as above; conditions: protein: recombinant; tags: 6xHis-SUMO cleaved (ULP1)
T3 sequence: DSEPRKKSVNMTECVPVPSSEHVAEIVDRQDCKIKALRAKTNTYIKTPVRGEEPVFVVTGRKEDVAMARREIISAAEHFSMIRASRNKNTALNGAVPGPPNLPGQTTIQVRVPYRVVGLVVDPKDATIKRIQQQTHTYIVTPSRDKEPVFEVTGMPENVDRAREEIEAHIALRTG

hMEX3B KH1/2 (G83D/G86D) = target: T4, hMEX3B KH1/2 (G83D/G86D) (Homo sapiens, UniProt Q6ZN04 56-230, G83D;G86D); experiment: ITC; N 0.67; ITC at 298 K, protein injected into RNA, both dialyzed in the same buffer (composition not in the material; purification SEC buffer 2 M NaCl, 20 mM Tris pH 7.5); NMR at 298 K, 0.1 mM protein; conditions: protein: recombinant; tags: 6xHis-SUMO cleaved (ULP1)
T4 sequence: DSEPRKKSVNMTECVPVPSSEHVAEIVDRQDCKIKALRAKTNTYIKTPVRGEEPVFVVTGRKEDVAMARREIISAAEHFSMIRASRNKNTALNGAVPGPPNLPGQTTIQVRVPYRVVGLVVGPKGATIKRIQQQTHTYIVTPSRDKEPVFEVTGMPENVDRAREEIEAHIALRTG

hMEX3B KH2 WT [2] = target: T5, hMEX3B KH2 WT (Homo sapiens, UniProt Q6ZN04 156-230); experiment: ITC; N 1.79; ITC at 298 K, protein injected into RNA, both dialyzed in the same buffer (composition not in the material; purification SEC buffer 2 M NaCl, 20 mM Tris pH 7.5); NMR at 298 K, 0.1 mM protein; conditions: protein: recombinant; tags: modified pET28a without thrombin site (His tag likely retained)
T5 sequence: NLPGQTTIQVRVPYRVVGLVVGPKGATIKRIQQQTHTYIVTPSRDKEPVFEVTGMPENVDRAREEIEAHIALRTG

hMEX3B KH1/2 WT [3] = target: T6, hMEX3B KH1/2 WT (Homo sapiens, UniProt Q6ZN04 56-230); experiment: ITC; N 0.91; ITC at 298 K, protein injected into RNA, both dialyzed in the same buffer (composition not in the material; purification SEC buffer 2 M NaCl, 20 mM Tris pH 7.5); NMR at 298 K, 0.1 mM protein; conditions: protein: recombinant; tags: 6xHis-SUMO cleaved (ULP1)
T6 sequence: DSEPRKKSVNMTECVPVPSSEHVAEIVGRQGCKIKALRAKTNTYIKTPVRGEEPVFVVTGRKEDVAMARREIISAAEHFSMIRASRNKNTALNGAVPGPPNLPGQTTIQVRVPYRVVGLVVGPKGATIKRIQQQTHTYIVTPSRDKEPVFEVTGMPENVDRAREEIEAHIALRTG

hMEX3B KH1 WT [4] = target: T7, hMEX3B KH1 WT (Homo sapiens, UniProt Q6ZN04 56-144); experiment: ITC; N 1.91; ITC at 298 K, protein injected into RNA, both dialyzed in the same buffer (composition not in the material; purification SEC buffer 2 M NaCl, 20 mM Tris pH 7.5); NMR at 298 K, 0.1 mM protein; conditions: protein: recombinant; tags: modified pET28a without thrombin site (His tag likely retained)
T7 sequence: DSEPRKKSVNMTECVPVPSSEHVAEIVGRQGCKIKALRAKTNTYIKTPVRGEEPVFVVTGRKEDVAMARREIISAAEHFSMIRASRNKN

[5] = target: T8, hMEX3B KH1/2 (T196A/R199A) (Homo sapiens, UniProt Q6ZN04 56-230, T196A;R199A); experiment: ITC; N 0.68; ITC at 298 K, protein injected into RNA, both dialyzed in the same buffer (composition not in the material; purification SEC buffer 2 M NaCl, 20 mM Tris pH 7.5); NMR at 298 K, 0.1 mM protein; conditions: protein: recombinant; tags: 6xHis-SUMO cleaved (ULP1)
T8 sequence: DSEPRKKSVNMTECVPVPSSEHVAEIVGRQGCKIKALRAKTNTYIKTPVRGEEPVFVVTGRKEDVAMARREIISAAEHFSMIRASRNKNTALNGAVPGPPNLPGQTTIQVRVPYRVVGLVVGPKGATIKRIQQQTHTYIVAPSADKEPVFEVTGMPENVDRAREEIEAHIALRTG

[6] = target: T9, hMEX3B KH1/2 (T102A/R105A) (Homo sapiens, UniProt Q6ZN04 56-230, T102A;R105A); experiment: ITC; N 0.79; ITC at 298 K, protein injected into RNA, both dialyzed in the same buffer (composition not in the material; purification SEC buffer 2 M NaCl, 20 mM Tris pH 7.5); NMR at 298 K, 0.1 mM protein; conditions: protein: recombinant; tags: 6xHis-SUMO cleaved (ULP1)
T9 sequence: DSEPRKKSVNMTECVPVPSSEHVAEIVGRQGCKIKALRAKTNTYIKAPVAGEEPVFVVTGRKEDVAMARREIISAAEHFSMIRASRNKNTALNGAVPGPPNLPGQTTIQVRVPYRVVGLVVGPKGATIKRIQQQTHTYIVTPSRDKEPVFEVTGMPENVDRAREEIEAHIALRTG

hMEX3B KH1/2 WT [7] = target: T6, hMEX3B KH1/2 WT; experiment: ITC; N 0.84; text says larger than 1.11 uM; ITC at 298 K, protein injected into RNA, both dialyzed in the same buffer (composition not in the material; purification SEC buffer 2 M NaCl, 20 mM Tris pH 7.5); NMR at 298 K, 0.1 mM protein; conditions: protein: recombinant; tags: 6xHis-SUMO cleaved (ULP1)
hMEX3B KH1/2 WT [8] = target: T6, hMEX3B KH1/2 WT; experiment: ITC; N 0.96; ITC at 298 K, protein injected into RNA, both dialyzed in the same buffer (composition not in the material; purification SEC buffer 2 M NaCl, 20 mM Tris pH 7.5); NMR at 298 K, 0.1 mM protein; conditions: protein: recombinant; tags: 6xHis-SUMO cleaved (ULP1)
hMEX3B KH1/2 WT [9] = target: T6, hMEX3B KH1/2 WT; experiment: ITC; N 0.89; ITC at 298 K, protein injected into RNA, both dialyzed in the same buffer (composition not in the material; purification SEC buffer 2 M NaCl, 20 mM Tris pH 7.5); NMR at 298 K, 0.1 mM protein; conditions: protein: recombinant; tags: 6xHis-SUMO cleaved (ULP1)
hMEX3B KH1/2 WT [10] = target: T6, hMEX3B KH1/2 WT; experiment: ITC; N 0.94; ITC at 298 K, protein injected into RNA, both dialyzed in the same buffer (composition not in the material; purification SEC buffer 2 M NaCl, 20 mM Tris pH 7.5); NMR at 298 K, 0.1 mM protein; conditions: protein: recombinant; tags: 6xHis-SUMO cleaved (ULP1)
hMEX3B KH1/2 WT [11] = target: T6, hMEX3B KH1/2 WT; experiment: ITC; ITC at 298 K, protein injected into RNA, both dialyzed in the same buffer (composition not in the material; purification SEC buffer 2 M NaCl, 20 mM Tris pH 7.5); NMR at 298 K, 0.1 mM protein; conditions: protein: recombinant; tags: 6xHis-SUMO cleaved (ULP1)
hMEX3B KH2 WT [12] = target: T5, hMEX3B KH2 WT; experiment: as above; conditions: protein: recombinant; tags: modified pET28a without thrombin site (His tag likely retained)
hMEX3B KH1 WT [13] = target: T7, hMEX3B KH1 WT; experiment: as above; conditions: protein: recombinant; tags: modified pET28a without thrombin site (His tag likely retained)
hMEX3B KH1 WT [14] = target: T7, hMEX3B KH1 WT; experiment: ITC; N 0.89; ITC at 298 K, protein injected into RNA, both dialyzed in the same buffer (composition not in the material; purification SEC buffer 2 M NaCl, 20 mM Tris pH 7.5); NMR at 298 K, 0.1 mM protein; conditions: protein: recombinant; tags: modified pET28a without thrombin site (His tag likely retained)
hMEX3B KH2 WT [15] = target: T5, hMEX3B KH2 WT; experiment: ITC; N 1.02; ITC at 298 K, protein injected into RNA, both dialyzed in the same buffer (composition not in the material; purification SEC buffer 2 M NaCl, 20 mM Tris pH 7.5); NMR at 298 K, 0.1 mM protein; conditions: protein: recombinant; tags: modified pET28a without thrombin site (His tag likely retained)

B1: 12-nt RNA (ssRNA)
RNA: CUGAGCUGUAAC
**Q.** Which results are given for B1?
**A.** Kd [1]: 7.42 ± 1.32 µM; binding result (hMEX3B KH1/2 (TR4A)): no binding; binding result (hMEX3B KH1/2 (G4D)): no binding; Kd (hMEX3B KH1/2 (G83D/G86D)): 10.4 ± 1.29 µM; Kd (hMEX3B KH2 WT [2]): 21.7 ± 6.87 µM; Kd (hMEX3B KH1/2 WT [3]): 0.0436 ± 0.00763 µM; Kd (hMEX3B KH1 WT [4]): 26.2 ± 7.4 µM; Kd [5]: 5.98 ± 0.59 µM; Kd [6]: 2.08 ± 0.29 µM

B2: switched 12-nt RNA (ssRNA)
RNA: UGUAACCUGAGC
**Q.** B2 was tested. Which Kd (hMEX3B KH1/2 WT [7]) did it give?
**A.** > 1.11 µM

B3: 12-nt RNA U2C (ssRNA)
RNA: CCGAGCUGUAAC
**Q.** Which Kd (hMEX3B KH1/2 WT [8]) does the source give for B3 here?
**A.** 0.72 ± 0.09 µM

B4: 12-nt RNA A4C (ssRNA)
RNA: CUGCGCUGUAAC
**Q.** Which Kd (hMEX3B KH1/2 WT [3]) does the source give for B4 here?
**A.** 2.1 ± 0.31 µM

B5: 12-nt RNA A10C (ssRNA)
RNA: CUGAGCUGUCAC
**Q.** With B5 as the binder, how does the Kd (hMEX3B KH1/2 WT [9]) read?
**A.** 1.58 ± 0.24 µM

B6: 12-nt RNA A11C (ssRNA)
RNA: CUGAGCUGUACC
**Q.** Which Kd (hMEX3B KH1/2 WT [10]) does the source give for B6 here?
**A.** 0.89 ± 0.09 µM

B7: C12 RNA (ssRNA)
RNA: CCCCCCCCCCCC
**Q.** Does B7 bind (hMEX3B KH1/2 WT [11])?
**A.** no binding

B8: C6 RNA (ssRNA)
RNA: CCCCCC
**Q.** Does B8 bind (hMEX3B KH2 WT [12])?
**A.** no binding

**Q.** Does B8 bind (hMEX3B KH1 WT [13])?
**A.** no binding

B9: 6-nt RNA UGUAAC (ssRNA)
RNA: UGUAAC
**Q.** B9 was tested. Which Kd (hMEX3B KH1 WT [14]) did it give?
**A.** 10.3 ± 0.61 µM

B10: 6-nt RNA CUGAGC (ssRNA)
RNA: CUGAGC
**Q.** B10 was tested. Which Kd (hMEX3B KH2 WT [15]) did it give?
**A.** 9.57 ± 0.99 µM
